Assay results: the supplement of paper PMC10567573

B1: DFFB (parent)
chain: TLVEAIKEQDGREVDWEYFYGLLF
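Note: lentivirally expressed fusions sorted by FACS into six bins by GFP to DsRed ratio, PSI derived from sequencing read proportions per bin multiplied by bin number.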

Variants of: B1
Assay: protein stability index of a GFP-peptide fusion (GPS, HEK-293T) (PSI 1-6); higher = more stable
Conditions: c terminus: a fixed tail appended
With TLVEAIKEQDGREVSWEYFYGLLF [D15S] the protein stability index was 2.12.
For TLVEAIKEQDGREVMWEYFYGLLF [D15M], the protein stability index was 1.69.
With TLVEAIKEQDGREVYWEYFYGLLF [D15Y] the protein stability index was 1.19.
In the case of TLVEAIKEQDGREVRWEYFYGLLF [D15R], the protein stability index is reported as 1.75.
Work on TLVEAIKEQDGREVTWEYFYGLLF [D15T] yielded a protein stability index of 2.08.
Work on TLVEAIKEQDGREVAWEYFYGLLF [D15A] yielded a protein stability index of 1.44.
For TLVEAIKEQDGREVLWEYFYGLLF [D15L], the protein stability index was 1.59.
In the case of TLVEAIKEQDGREVGWEYFYGLLF [D15G], the protein stability index is reported as 1.9.
TLVEAIKEQDGREVNWEYFYGLLF [D15N] showed a protein stability index of 1.9.
In the case of TLVEAIKEQDGREVEWEYFYGLLF [D15E], the protein stability index is reported as 3.52.
TLVEAIKEQDGREVQWEYFYGLLF [D15Q] gave a protein stability index of 1.78.
Work on TLVEAIKEQDGREVCWEYFYGLLF [D15C] yielded a protein stability index of 1.9.
TLVEAIKEQDGREVFWEYFYGLLF [D15F] gave a protein stability index of 1.93.
With TLVEAIKEQDGREVIWEYFYGLLF [D15I] the protein stability index was 2.15.
Variant TLVEAIKEQDGREVPWEYFYGLLF [D15P] has a protein stability index of 2.2.
TLVEAIKEQDGREVWWEYFYGLLF [D15W] gave a protein stability index of 1.88.
TLVEAIKEQDGREVHWEYFYGLLF [D15H] gave a protein stability index of 1.51.
TLVEAIKEQDGREVDWKYFYGLLF [E17K] gave a protein stability index of 3.25.
For TLVEAIKEQDGREVDWDYFYGLLF [E17D], the protein stability index was 2.52.
Work on TLVEAIKEQDGREVDWNYFYGLLF [E17N] yielded a protein stability index of 1.4.
Variant TLVEAIKEQDGREVDWFYFYGLLF [E17F] has a protein stability index of 1.6.
For TLVEAIKEQDGREVDWVYFYGLLF [E17V], the protein stability index was 2.24.
Variant TLVEAIKEQDGREVDWYYFYGLLF [E17Y] has a protein stability index of 1.67.
For TLVEAIKEQDGREVDWAYFYGLLF [E17A], the protein stability index was 2.06.
With TLVEAIKEQDGREVDWQYFYGLLF [E17Q] the protein stability index was 2.21.
Variant TLVEAIKEQDGREVDWRYFYGLLF [E17R] has a protein stability index of 2.46.
With TLVEAIKEQDGREVDWTYFYGLLF [E17T] the protein stability index was 2.42.
Work on TLVEAIKEQDGREVDWLYFYGLLF [E17L] yielded a protein stability index of 2.18.
In the case of TLVEAIKEQDGREVDWHYFYGLLF [E17H], the protein stability index is reported as 2.08.
In the case of TLVEAIKEQDGREVDWIYFYGLLF [E17I], the protein stability index is reported as 1.48.
TLVEAIKEQDGREVDWMYFYGLLF [E17M] showed a protein stability index of 1.78.
TLVEAIKEQDGREVDWGYFYGLLF [E17G] gave a protein stability index of 2.38.
With TLVEAIKEQDGREVDWPYFYGLLF [E17P] the protein stability index was 1.33.
TLVEAIKEQDGRMVDWEYFYGLLF [E13M] showed a protein stability index of 2.02.
Variant TLVEAIKEQDGRAVDWEYFYGLLF [E13A] has a protein stability index of 1.74.
TLVEAIKEQDGRSVDWEYFYGLLF [E13S] showed a protein stability index of 1.76.
Work on TLVEAIKEQDGRWVDWEYFYGLLF [E13W] yielded a protein stability index of 2.27.
In the case of TLVEAIKEQDGRDVDWEYFYGLLF [E13D], the protein stability index is reported as 2.1.
TLVEAIKEQDGRHVDWEYFYGLLF [E13H] gave a protein stability index of 1.84.
Work on TLVEAIKEQDGRFVDWEYFYGLLF [E13F] yielded a protein stability index of 1.85.
TLVEAIKEQDGRGVDWEYFYGLLF [E13G] gave a protein stability index of 3.05.
In the case of TLVEAIKEQDGRVVDWEYFYGLLF [E13V], the protein stability index is reported as 2.07.
TLVEAIKEQDGRCVDWEYFYGLLF [E13C] showed a protein stability index of 1.22.
With TLVEAIKEQDGRPVDWEYFYGLLF [E13P] the protein stability index was 1.67.
Work on TLVEAIKEQDGRRVDWEYFYGLLF [E13R] yielded a protein stability index of 1.81.
With TLVEAIKEQDGRKVDWEYFYGLLF [E13K] the protein stability index was 3.03.
TLVEAIKEQDGRLVDWEYFYGLLF [E13L] gave a protein stability index of 1.57.
Work on TLVEAIKEQDGRYVDWEYFYGLLF [E13Y] yielded a protein stability index of 3.29.
With TLVEAIKEQDGRIVDWEYFYGLLF [E13I] the protein stability index was 2.36.
For TLVEAIKEQDGRNVDWEYFYGLLF [E13N], the protein stability index was 1.79.
TLVEAIKEQDGRTVDWEYFYGLLF [E13T] showed a protein stability index of 1.98.
Work on TLVEAIKEQDGREVDWEYFYILLF [G21I] yielded a protein stability index of 1.34.
For TLVEAIKEQDGREVDWEYFYLLLF [G21L], the protein stability index was 1.35.
In the case of TLVEAIKEQDGREVDWEYFYWLLF [G21W], the protein stability index is reported as 1.83.
Work on TLVEAIKEQDGREVDWEYFYKLLF [G21K] yielded a protein stability index of 2.31.
TLVEAIKEQDGREVDWEYFYHLLF [G21H] gave a protein stability index of 2.37.
For TLVEAIKEQDGREVDWEYFYNLLF [G21N], the protein stability index was 1.87.
Work on TLVEAIKEQDGREVDWEYFYYLLF [G21Y] yielded a protein stability index of 1.53.
TLVEAIKEQDGREVDWEYFYMLLF [G21M] gave a protein stability index of 2.26.
In the case of TLVEAIKEQDGREVDWEYFYPLLF [G21P], the protein stability index is reported as 1.46.
For TLVEAIKEQDGREVDWEYFYRLLF [G21R], the protein stability index was 1.84.
Work on TLVEAIKEQDGREVDWEYFYCLLF [G21C] yielded a protein stability index of 1.72.
With TLVEAIKEQDGREVDWEYFYVLLF [G21V] the protein stability index was 1.08.
Variant TLVEAIKEQDGREVDWEYFYTLLF [G21T] has a protein stability index of 1.88.
TLVEAIKEQDGREVDWEYFYELLF [G21E] showed a protein stability index of 1.93.
TLVEAIKEQDGREVDWEYFYQLLF [G21Q] gave a protein stability index of 2.25.
In the case of TLVEAIKEQDGREVDWEYFYSLLF [G21S], the protein stability index is reported as 2.
For TLVEAIKEQYGREVDWEYFYGLLF [D10Y], the protein stability index was 1.92.
TLVEAIKEQDGGEVDWEYFYGLLF [R12G] showed a protein stability index of 1.74.
For TLVEAIKEQDGTEVDWEYFYGLLF [R12T], the protein stability index was 1.92.
In the case of TLVEAIKEQDGCEVDWEYFYGLLF [R12C], the protein stability index is reported as 1.91.
With TLVEAIKEQDGYEVDWEYFYGLLF [R12Y] the protein stability index was 2.59.
With TLVEAIKEQDGQEVDWEYFYGLLF [R12Q] the protein stability index was 2.41.
With TLVEAIKEQDGKEVDWEYFYGLLF [R12K] the protein stability index was 2.41.
In the case of TLVEAIKEQDGSEVDWEYFYGLLF [R12S], the protein stability index is reported as 1.84.
Variant TLVEAIKEQDGPEVDWEYFYGLLF [R12P] has a protein stability index of 2.16.
Work on TLVEAIKEQDGHEVDWEYFYGLLF [R12H] yielded a protein stability index of 2.2.
In the case of TLVEAIKEQDGAEVDWEYFYGLLF [R12A], the protein stability index is reported as 1.32.
TLVEAIKEQDGEEVDWEYFYGLLF [R12E] showed a protein stability index of 2.44.
With TLVEAIKEQDGMEVDWEYFYGLLF [R12M] the protein stability index was 2.18.
In the case of TLVEAIKEQDGFEVDWEYFYGLLF [R12F], the protein stability index is reported as 1.48.
In the case of TLVEAIKEQDGWEVDWEYFYGLLF [R12W], the protein stability index is reported as 1.72.
With TLVEAIKEQDGVEVDWEYFYGLLF [R12V] the protein stability index was 2.07.
TLVEAIKEQDGIEVDWEYFYGLLF [R12I] showed a protein stability index of 1.56.
In the case of TLVEAIKEQDGNEVDWEYFYGLLF [R12N], the protein stability index is reported as 2.42.
In the case of TLVEAIKEQDGREVDMEYFYGLLF [W16M], the protein stability index is reported as 2.05.
In the case of TLVEAIKEQDGREVDIEYFYGLLF [W16I], the protein stability index is reported as 1.93.
TLVEAIKEQDGREVDKEYFYGLLF [W16K] showed a protein stability index of 1.87.
With TLVEAIKEQDGREVDVEYFYGLLF [W16V] the protein stability index was 2.61.
Work on TLVEAIKEQDGREVDYEYFYGLLF [W16Y] yielded a protein stability index of 1.72.
TLVEAIKEQDGREVDGEYFYGLLF [W16G] gave a protein stability index of 2.44.
TLVEAIKEQDGREVDDEYFYGLLF [W16D] showed a protein stability index of 2.53.
TLVEAIKEQDGREVDAEYFYGLLF [W16A] gave a protein stability index of 2.06.
Variant TLVEAIKEQDGREVDSEYFYGLLF [W16S] has a protein stability index of 2.84.
